From patent US20220033460A1, “IDENTIFICATION AND USE OF T CELL EPITOPES IN DESIGNING DIAGNOSTIC AND THERAPEUTIC APPROACHES FOR COVID-19” (priority 2020, published 2022)

Assays:
[1] = tested on: TCRs from the BAL of COVID-19 patients; type: cell-based, human
[2] = target: DRB1*07:01 (Homo sapiens, UniProt P01903+P01911, A100R/A102G/A103Q/D57E/D86V/E43K/F76Y/K127E/L162R/M171V/P40G/Q125H/Q99D/R33Q/R42Y/R54Q/S133A/S66F/T210M/V115G/Y107V/Y59L/Y89S); type: cell-based; conditions: for MCR2 construct expression (presentation): 12mer peptides in DRB1*07:01-MCR2

Substance | recognition by TCR007 (NFAT activation) [1] | peptide presentation by DRB1*07:01 (FACS staining, MEDi-MA scores) ([2]; mutated versus WT peptides) | MCR2 construct expression (presentation) [2]
S714-728 (T716I): Spike 15mer 714-728 with the T716I mutation of the B1.1.7 variant | not recognized | presented as well as the WT | –
S714-725(T716I): Spike 12mer peptide with T716I cloned into DRB1*07:01-MCR2 | – | – | expressed well
S714-725: Spike 12mer peptide cloned into DRB1*07:01-MCR2 | not | – | expressed well
